Test results: patent publication US20210188980A1 (SHANGHAI EPIMAB BIOTHERAPEUTICS, published 2021)

T1: human LAG-3 expressed on cells (human, UniProt P18627 23-525)
T1 construct: whole, on cells; also called HEK 293F cells expressing human LAG-3; T hybridoma-huLAG-3 cells
T1 sequence (looked up): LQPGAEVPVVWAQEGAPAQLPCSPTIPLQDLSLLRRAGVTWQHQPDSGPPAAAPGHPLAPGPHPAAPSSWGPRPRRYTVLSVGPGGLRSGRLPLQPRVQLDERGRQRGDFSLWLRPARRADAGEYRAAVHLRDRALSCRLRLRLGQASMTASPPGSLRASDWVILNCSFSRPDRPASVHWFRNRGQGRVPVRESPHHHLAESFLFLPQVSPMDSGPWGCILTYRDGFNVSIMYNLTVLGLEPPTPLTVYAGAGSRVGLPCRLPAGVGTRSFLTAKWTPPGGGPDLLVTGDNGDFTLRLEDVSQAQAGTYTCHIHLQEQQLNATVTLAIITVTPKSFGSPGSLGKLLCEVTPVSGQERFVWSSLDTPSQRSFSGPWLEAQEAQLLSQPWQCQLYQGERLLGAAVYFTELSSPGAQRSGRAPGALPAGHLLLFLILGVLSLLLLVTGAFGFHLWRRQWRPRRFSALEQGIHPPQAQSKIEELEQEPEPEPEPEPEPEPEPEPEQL

T2: recombinant human LAG-3-his protein (Novoprotein) (human, UniProt P18627 23-450)
T2 construct: Bought; also called huLAG-3; not shown: His tag
T2 sequence (looked up): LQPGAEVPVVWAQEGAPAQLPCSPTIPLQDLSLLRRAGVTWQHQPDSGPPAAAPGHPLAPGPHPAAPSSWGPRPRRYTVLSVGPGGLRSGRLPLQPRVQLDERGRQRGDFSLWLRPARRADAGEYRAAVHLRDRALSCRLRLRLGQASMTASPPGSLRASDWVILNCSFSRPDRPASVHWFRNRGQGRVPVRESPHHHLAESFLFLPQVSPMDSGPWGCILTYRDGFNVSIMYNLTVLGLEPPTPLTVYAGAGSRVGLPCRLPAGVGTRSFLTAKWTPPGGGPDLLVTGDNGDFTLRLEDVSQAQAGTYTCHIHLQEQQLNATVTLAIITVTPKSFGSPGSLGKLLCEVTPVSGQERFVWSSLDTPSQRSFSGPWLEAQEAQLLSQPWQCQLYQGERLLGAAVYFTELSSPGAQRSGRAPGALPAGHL


Assays:
[1] = target: LAG-3 antigen (Biacore analyte of Example 7.7); assay: SPR Biacore T200, mAb captured, LAG-3 antigen analyte
Protocol: For antibodies with high binding affinity in ELISA and FACS assays, as well as potent functional activity, binding affinities were determined based on measurement of binding kinetic constants in real time binding reactions using Biacore surface plasmon resonance. Briefly, the binding assay of antibody to antigen was performed using a Biacore T200 system through an antibody capture approach. Anti-mouse IgG Fc antibody was immobilized on a CM5 sensor chip according to the manufacturer's instructions. The test anti-LAG-3 murine monoclonal antibody was injected and captured by the immobilized anti-mouse IgG Fc. Then serial concentrations of LAG-3 antigen were individually injected, and the binding profile was recorded for each concentration of antigen analyte. The assay temperature was 25° C., and the association and dissociation times were 180 and 1200 seconds, respectively. The Biacore data were fitted using Biacore T200 evaluation software 1.0 according to a 1:1 binding model to calculate the association (kₒₙ) and dissociation (koff) rate constants and from these calculations the equilibrium dissociation constant (KD) was determined.

[2] = target: T1, human LAG-3 expressed on cells; assay: FACS, HEK 293F huLAG-3 cells
Protocol: (§1) FAGS analysis was performed using methods similar to Example 1.4, above, except that stable HEK 293F cell lines expressing either human LAG-3 cynomolgus LAG-3 were used. LAG-3 expressing cells were charged at 2×10⁴ cell per well into 96-well assay round-bottomed assay plates (Cat. No. 3799; Corning) and stained with purified anti-LAG-3 antibodies. LAG-3 antibodies were detected with AlexaFluor® Donkey anti-Mouse Ig (H+L) Highly Cross-Adsorbed Secondary Antibody (Cat. No. A21202; Invitrogen), and cell fluorescence was monitored using a flow cytometer. The data were processed by GraphPad software, and EC50 values were calculated.

[3] = target: T3, cynomolgus LAG-3 expressed on HEK 293F cells (cynomolgus); assay: FACS, HEK 293F cynoLAG-3 cells
T3 construct: whole, on cells
Protocol: as §1

[4] = target: T4, human LAG-3 ECD/Fc fusion protein (human); assay: ELISA, coated huLAG-3 ECD/Fc
T4 construct: also called HuLAG-3 ECD/Fc
Protocol: The supernatants of hybridoma clones were primarily screened by ELISA. Briefly, 50 μl/well of […] human LAG-3 ECD/Fc in NaHCO₃ were directly coated in each well of 96-well plate overnight. Plates were washed 3 times with 1×PBST, 300 μl per well. After blocking with 1% BSA in PBST at 250 μl per well and incubating at room temperature for 1 hour, the hybridoma supernatants were added at 50 μl per well and incubated at 37° C. for 1 hour. After washing, an HRP-linked goat anti-mouse IgG Fc secondary antibody (Cat. No. A0168, Sigma) was added at 100 μl/well and the plates were incubated at room temperature for 1 hour. TMB reagent (InnoReagents) was used to detect and develop the ELISA signal at 100 μl/well for 15 minutes, the reaction was stopped with 1 Normal HCL. The plates were read with a plate reader (SpectraMax® M5e, Molecular Devices, USA) at a wavelength of 450 nm. The ELISA-positive antibody producer clones were further verified by FACS analysis using methods similar to Example 1.4, above, except that stable HEK 293F cell lines expressing either human LAG-3 or cynomolgus LAG-3 were used. Hybridomas producing LAG-3 binding activity were selected and further characterized in a receptor blocking assay (RBA).
A binding ELISA was performed in the same way as described in Example 7.2 above. Each purified antibody was 10-fold serially diluted. After blocking of a 96-well assay plate with wells containing immobilized LAG-3 ECD/Fc fusion protein targets, the purified antibody samples with diluted concentrations were added to wells of the assay plate. The HRP-linked anti-mouse IgG antibody (A0168, Sigma) and TMB reagent were used to detect and develop the ELISA signal, which were read on a SpectraMax M5e plate reader at wavelength of 450 nm. Curves were fitted using GraphPad software, and EC50 values were calculated. Similarly, a RBA was also performed as described in Example 7.3 with titrated, purified antibodies, and maximum inhibition percentages and IC50 values were determined.

[5] = target: T4, human LAG-3 ECD/Fc fusion protein; assay: FACS RBA, huLAG-3 ECD/Fc on Raji; competitor MHC Class II
Protocol: Supernatants displaying LAG-3 specific activity were tested for the ability to block LAG-3 receptor binding to MHC Class II. Raji human B cell lymphoblasts express high levels of MCH Class II and were used as binding targets for LAG-3 ECD/Fc proteins described above. Briefly, Raji cells were harvested and resuspend in FACS buffer and plated in 96-well plates (2×10⁵ cells/well). Anti-LAG-3 hybridoma supernatants were mixed with soluble LAG-3 ECD/Fc and the mixture was added to wells at a final volume of 100 μl/well. After adding the mixture to cells, the plates were incubated at room temperature for 30 minutes. After washing twice with PBS, the cells were incubated with anti-human IgG Alexa Fluor® 488 secondary antibody at 4° C. for 1 hour, washed twice with PBS, then fluorescence was measured on a flow cytometer.
Purified anti-LAG-3 antibodies also were tested in a RBA in the same manner as described in Example 7.3. Antibodies were also tested in an antigen-specific T cell activation assay, as follows: A huLAG-3 expressing murine T hybridoma cell line was generated to order by ChemPartner (Shanghai, CN). Mouse splenocytes from the same strain of mice were used as effector cells. The hybridoma expressing the huLAG-3 receptor protein is capable of binding to MHC Class II-positive mouse splenocytes, with inhibitory effect via engagement of Class II. The assay tests for anti-LAG-3 antibody-mediated reversal of the inhibitory effect, as measured by increased production of IL-2. Mouse spleenocytes were harvested from 6-8 week-old female C57BL/6 mice, red blood cells were lysed using Red Blood Cell Lysis Buffer (Sigma-Aldrich; R7757) according to the maker's instructions. Next, 50 μl T hybridoma-huLAG-3 cells (2×10⁶ cells/ml) were seeded in each well of a 96-well culture plate, and then a series of anti-LAG-3 monoclonal antibodies in solution at 50 μl/well were added and incubated at 37° C. for 30 min. Mouse splenocytes (4×10⁶ cells/ml) and the antigen (20 μg/ml) were mixed and incubated at 37° C. for 30 min. The mixture (100 μl/well) was added into each well that was already seeded with T hybridoma-huLAG-3 cells and anti-LAG-3 mAbs. The mixture of antibodies, T hybridoma-huLAG-3 cells, mouse splenocytes, and the antigen was cultured for 3 days.

[6] = target: T1, human LAG-3 expressed on cells; assay: cell-based or functional assay
[7] = target: T2, recombinant human LAG-3-his protein …; assay: BLI Octet, Ab on AHC sensor, huLAG-3-his analyte
Protocol: (§2) All 9 humanized antibodies (Table 25) and a chimeric antibody having the parental murine VH and VL domains (mAb747c) were ranked by dissociation rate constant (koff). Briefly, antibodies were characterized for affinities and binding kinetics by Octet RED96 biolayer interferometry (Pall FortéBio LLC). Antibodies were captured by Anti-HIgG Fc Capture (AHC) Biosensors (Pall) at a concentration of 100 nM for 30 seconds. Sensors were then dipped into running buffer (1× pH7.2 PBS, 0.05% Tween 20, 0.1% BSA) for 60 seconds to check baseline. Binding was measured by dipping sensors into a single concentration of recombinant human LAG-3-his protein (Novoprotein). Dissociation was followed by dipping sensors into running buffer for 1200 seconds. The association and dissociation curves were fitted to a 1:1 Langmuir binding model using FortéBio Data Analysis software (Pall).

[8] = target: T2, recombinant human LAG-3-his protein …; assay: BLI Octet, Ab on AHC sensor, huLAG-3-his; test group 2
Protocol: as §2
The seven Fab clones were converted to full IgG proteins. Briefly, the VH and VL genes were produced synthetically and then cloned into vectors containing coding sequences for the human IgG1 and human kappa constant domains, respectively. The heavy chain and cognate light chain plasmids were co-transfected into HEK 293E cells, individually. After approximately six days of post-transfection cell culture, the supernatants were harvested and subjected to Protein A affinity chromatography. The affinity of purified antibodies was ranked by Octet® RED96 biolayer interferometry (see, Example 9.1, supra).

Row | Binder | Kd [1] | EC50 [2] | Max-MFI [2] | EC50 [3] | Max-MFI [3] | EC50 [4] | IC50 [5] | Max. Inhib. (%) [5] | Max IL-2 [6] | Antigen-dependent Activation, Mouse IL-2, EC50 [6] | koff [7] | koff [8] | off-rate ratio to that of mAb747c [8]
1 | mAb746 (antibody, V domains shown, murine hybridoma anti-LAG-3 mAb; also called rnAb746; 3502-mAb746) VH: EVQLQQSGAELVRPGASVKLSCTASDFNIKDDYMHWVKQRPEQGLDWIGWIVPENGNTEYASKFQGKATITADTSSNTAYLQLSSLTSEDTAVYYCTVYGDYWGQGTTLTVSS VL: DIQMTQSPSSLSASLGERVSLNCRASQEISGYLSWLQQKSDGTIKRLIYAASTLDSGVPKRFSGSRSGSDYSLTISSLESEDFADYYCLQYASYPLTFGAGTKLELK | 37.7 nM | 13 nM | 121 MFI | 4.1 nM | 66.2 MFI | 0.31 nM | 2.92 nM | 96.2% | 654 pg/mL | 1.28 nM | – | – | –
2 | HumAb747-39 (antibody, human IgG1, V domains shown, humanized mAb747; human IgG1 and human kappa constant domains) VH: EVQLVQSGAEVKKPGASVKVSCKASDFNIKDDYMHWVRQAPGQGLEWIGWIVPENGNTEYASKFQGRVTITADTSINTAYMELSRLRSDDTAVYYCTVYGDYWGQGTTVTVSS VL: DIQMTQSPSSLSASVGDRVTINCRASQEISGYLSWLQQKPEGTIKRLIYAASTLDSGVPSRFSGSRSGSDYTLTISSLQPEDFATYYCLQYASYPLTFGGGTKVEIK | – | – | – | – | – | – | – | – | – | – | 0.00114 s⁻¹ | 0.00391 s⁻¹ | 240%

The next lines start with the values.

Row | Kd [1] | EC50 [2] | Max-MFI [2] | EC50 [3] | Max-MFI [3] | EC50 [4] | IC50 [5] | Max. Inhib. (%) [5] | Max IL-2 [6] | Antigen-dependent Activation, Mouse IL-2, EC50 [6] | koff [7] | koff [8] | off-rate ratio to that of mAb747c [8] | Binder
3 | 189 nM | 3.3 nM | 124 MFI | 14.3 nM | 67.4 MFI | 0.55 nM | 4.73 nM | 93.9% | 513 pg/mL | – | – | – | – | mAb749 (antibody, V domains shown, murine hybridoma anti-LAG-3 mAb) VH: EVQLQQSGAELVRPGASVKVSCTASDFNIKDDYVHWVKQRPEQGLEWIGWIDPENGDTEYASKFQGKATITADTSSNTAYLQLSSLTSEDTAVYFCSTWDAEENYWGQGTTLSVSS VL: DIVLTQAAPSVPVTPGESVSISCRSSKSLLHSNGNTYLYWFLQRPGQSPQVLIYRMSNLASGVPVRFSGSGSGTAFTLRISRVEAEDVGVYYCMQHLEYPFTFGSGTKLEIK
4 | 52 nM | 1.1 nM | 104 MFI | 3.1 nM | 65.2 MFI | 0.25 nM | 2.84 nM | 96.3% | 729 pg/mL | 1.27 nM | – | – | – | mAb747 (antibody, V domains shown, murine hybridoma anti-LAG-3 mAb; also called 3502-mAb747) VH: EVQLQQSGAELVRPGASVKLSCTASDFNIKDDYMHWVKQRPEQGLDWIGWIVPENGNTEYASKFQGKATITADTSSNTAYLQLSSLTSEDTAVYYCTVYGDYWGQGTTLTVSS VL: DIQMTQSPSSLSASLGERVSLNCRASQEISGYLSWLQQKPDGTIKRLIYAASTLDSGVPKRFSGSRSGSDYSLTISSLESEDFAAYYCLQYASYPLTFGAGTKLELK
5 | 75.1 nM | 24.1 nM | 88.7 MFI | 114 nM | 36.7 MFI | 0.25 nM | 7.15 nM | 96.6% | 552 pg/mL | – | – | – | – | mAb750 (antibody, V domains shown, murine hybridoma anti-LAG-3 mAb) VH: EVQLQQSGAELVRPGASVKLSCTPSGLNIKDDYIHWVKQRPEQGLEWIGWIDPENGDTEYASKFQGKATITADTSSNTAYLQLSSLTSEDSAVYYCCTADYRNWYWGQGTTLTVSS VL: not shown
